B1: Sx4(1-275)-His (C-terminally His6-tagged Syntaxin4 C141S, residues 1-275) (domain or fragment, UniProt P70452 1-275, looked up)
chain: MRDRTHELRQGDNISDDEDEVRVALVVHSGAARLGSPDDEFFQKVQTIRQTMAKLESKVRELEKQQVTILATPLPEESMKQGLQNLREEIKQLGREVRAQLKAIEPQKEEADENYNSVNTRMKKTQHGVLSQQFVELINKSNSMQSEYREKNVERIRRQLKITNAGMVSDEELEQMLDSGQSEVFVSNILKDTQVTRQALNEISARHSEIQQLERSIRELHEIFTFLATEVEMQGEMINRIEKNILSSADYVERGQEHVKIALENQKKARKKKVM
notes: source: also in lysate for the co-purification; not shown: His6, C-terminal, kept

The target in experiment [1] is T1, HMunc18c (His6-tagged full-length mouse Munc18c from a codon-optimised synthetic gene in pQE30) (mouse, UniProt Q60770 1-592).
T1 construct: Monomer by SEC-MALS; also called pQE30-His6-Munc18c; bacterially expressed Munc18c; source: E. coli BL21, co-expressed with GroEL/GroES, purified (IMAC PrepEase, SEC, MonoS IEC); not shown: His6, N-terminal, kept
T1 sequence (looked up): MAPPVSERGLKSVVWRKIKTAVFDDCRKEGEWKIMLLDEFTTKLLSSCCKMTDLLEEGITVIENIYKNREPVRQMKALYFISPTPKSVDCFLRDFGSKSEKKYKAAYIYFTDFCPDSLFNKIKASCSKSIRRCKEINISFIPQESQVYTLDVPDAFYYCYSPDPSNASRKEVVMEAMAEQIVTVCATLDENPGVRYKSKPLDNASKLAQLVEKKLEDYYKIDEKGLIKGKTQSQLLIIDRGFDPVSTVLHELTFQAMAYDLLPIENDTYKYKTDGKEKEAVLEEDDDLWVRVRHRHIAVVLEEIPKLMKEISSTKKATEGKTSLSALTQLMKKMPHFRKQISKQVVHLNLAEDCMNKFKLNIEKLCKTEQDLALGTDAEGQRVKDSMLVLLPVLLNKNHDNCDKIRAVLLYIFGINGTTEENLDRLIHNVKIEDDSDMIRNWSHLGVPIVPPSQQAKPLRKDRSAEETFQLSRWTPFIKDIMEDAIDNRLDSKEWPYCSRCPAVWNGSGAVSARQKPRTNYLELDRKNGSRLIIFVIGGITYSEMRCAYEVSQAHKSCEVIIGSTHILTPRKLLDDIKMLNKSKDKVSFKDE
The experiment can be described thus: ITC; 298 K, iTC200; Sx4(1-275)-His 200-220 µM titrated into 20-30 µM HMunc18c in the cell; 25 mM HEPES pH 8, 200 mM NaCl, 10% glycerol, 2 mM β-ME; single site model; four replicates, mean ± SEM. As to conditions: both partners purified. A general note: In ITC the heat of successive injections is recorded.

Experiment [2] has as its target B1. As to the kind of experiment: pull-down + SEC; lysates of un-tagged Munc18c and Sx4(1-275)-His mixed 3:1 by volume, captured on TALON beads, eluted, Superdex 200 in 25 mM Tris-HCl pH 7.5, 300 mM NaCl, 10% glycerol; peak fractions on SDS-PAGE. Particulars: partners not purified.

Consider two molecules from article PMC3877047 (PLoS ONE, 2013).

For orientation: Kd means the constant that tells how readily two partners part at equilibrium. A high value points to weaker binding. A word on the stoichiometry N: it is the number of molecules, sites or subunits per partner or assembly. As to B1, in experiment [1], the Kd stood at 0.104 µM, the dH was -46 kJ/mol and the “stoichiometry N” value stood at 0.97.

B2: Munc18c (un-tagged) (natural protein, mouse, UniProt Q60770 1-592, looked up)
chain: MAPPVSERGLKSVVWRKIKTAVFDDCRKEGEWKIMLLDEFTTKLLSSCCKMTDLLEEGITVIENIYKNREPVRQMKALYFISPTPKSVDCFLRDFGSKSEKKYKAAYIYFTDFCPDSLFNKIKASCSKSIRRCKEINISFIPQESQVYTLDVPDAFYYCYSPDPSNASRKEVVMEAMAEQIVTVCATLDENPGVRYKSKPLDNASKLAQLVEKKLEDYYKIDEKGLIKGKTQSQLLIIDRGFDPVSTVLHELTFQAMAYDLLPIENDTYKYKTDGKEKEAVLEEDDDLWVRVRHRHIAVVLEEIPKLMKEISSTKKATEGKTSLSALTQLMKKMPHFRKQISKQVVHLNLAEDCMNKFKLNIEKLCKTEQDLALGTDAEGQRVKDSMLVLLPVLLNKNHDNCDKIRAVLLYIFGINGTTEENLDRLIHNVKIEDDSDMIRNWSHLGVPIVPPSQQAKPLRKDRSAEETFQLSRWTPFIKDIMEDAIDNRLDSKEWPYCSRCPAVWNGSGAVSARQKPRTNYLELDRKNGSRLIIFVIGGITYSEMRCAYEVSQAHKSCEVIIGSTHILTPRKLLDDIKMLNKSKDKVSFKDE
notes: made from pQE30-HMunc18c by PCR that removes the His6 codons; A few vector-encoded residues may be left at the N-terminus (surmised); also called untagged Munc18c; un-tagged Munc18c
Turning to B2, the “stoichiometry N” value in experiment [2] was 1.
